One test concerns the target T1, CEA (UniProt P06731 35-685).
T1 sequence (looked up): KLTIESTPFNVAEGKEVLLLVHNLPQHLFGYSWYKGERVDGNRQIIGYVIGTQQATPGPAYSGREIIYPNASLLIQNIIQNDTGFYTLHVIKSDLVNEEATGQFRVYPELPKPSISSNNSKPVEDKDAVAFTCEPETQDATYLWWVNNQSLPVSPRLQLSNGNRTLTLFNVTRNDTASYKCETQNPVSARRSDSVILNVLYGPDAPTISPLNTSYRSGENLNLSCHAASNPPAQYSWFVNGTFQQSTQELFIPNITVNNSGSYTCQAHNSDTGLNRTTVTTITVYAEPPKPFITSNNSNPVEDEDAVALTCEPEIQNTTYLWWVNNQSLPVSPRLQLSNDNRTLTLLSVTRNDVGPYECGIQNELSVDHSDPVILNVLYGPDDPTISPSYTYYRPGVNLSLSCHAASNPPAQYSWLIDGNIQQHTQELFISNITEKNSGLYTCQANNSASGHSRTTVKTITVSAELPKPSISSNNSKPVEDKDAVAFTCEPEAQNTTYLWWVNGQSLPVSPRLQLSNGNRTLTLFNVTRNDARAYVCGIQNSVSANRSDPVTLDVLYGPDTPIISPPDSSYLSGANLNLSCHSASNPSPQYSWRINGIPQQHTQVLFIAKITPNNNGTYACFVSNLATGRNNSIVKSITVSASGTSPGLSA
The test can be described thus: ELISA, crude Fab supernatant, detected with 9E10. In general terms: In an ELISA, binding on a coated surface is turned into a signal by an enzyme label.

Test [1] concerns the target T2, bovine serum albumin (bovine, UniProt P02769 25-607).
T2 construct: also called BSA
The test can be described thus: ELISA, crude Fab supernatant, detected with 9E10.

Test [2] has as its target T3, ErbB2 extracellular domain (UniProt P04626 23-652, limits assumed).
T3 construct: extracellular domain
Put plainly: ELISA, crude Fab supernatant, detected with 9E10.

In test [3] the target is T4, recombinant p53 (wild type, whole protein) (UniProt P04637 1-393, limits assumed).
The target of test [4] is T5, p53 deletion construct 18 (residues 44-393) (human, UniProt P04637 44-393).
T5 construct: In E. coli lysate on an immunoblot; also called the 18 construct
The test can be described thus: immunoblot of E. coli lysates, Fab detected with 9E10 and HRP goat anti-mouse.

For test [5], the target named is T4, recombinant p53 (wild type, whole …). The test can be described thus: SPR (BIAcore), p53 amine-coupled to a CM5 chip, Fab 10-200 nM injected, global fit, 1:1 model with drifting baseline. (In general: Surface plasmon resonance follows binding to a sensor surface in real time, without labels.)
The target in test [6] is T6, p53 carboxy terminal domain (residues 283-393) (UniProt P04637 283-393).
T6 construct: Carries the vector's tag; also called C-terminal domain; carboxy terminal domain of the p53
Put plainly: ELISA, detected with HRP goat anti-human.

The target in test [7] is T7, p53 central domain (residues 95-298) (UniProt P04637 95-298).
T7 construct: range 95-298; Carries the vector's tag (purified as whole p53 on Ni2+ resin); also called central domain of p53
Put plainly: ELISA, detected with HRP goat anti-human.

Test [8] has as its target T2, bovine serum albumin. The test can be described thus: cross reactivity ELISA, purified antibody, HRP goat anti-human.
Another test deals with hen egg white lysozyme (hen, UniProt P00698 19-147). The description is as above.
The target in test [9] is T7, p53 central domain (residues 95-298). The test can be described thus: immunoblot of purified central domain, Fab bacterial supernatant. For orientation: In western blotting, separated proteins are transferred to a membrane and probed.
The target in test [10] is T2, bovine serum albumin. Put plainly: cross reactivity ELISA, Fab detected with 9E10 and AP goat anti-mouse.
Test [11] has as its target T4, recombinant p53 (wild type, whole …). Put plainly: ELISA, soluble Fab, detected with 9E10 and AP goat anti-mouse.
The target in test [12] is T7, p53 central domain (residues 95-298). The description is as above.

Where two headings read alike, the source gives them in different places.

T2 sequence (P02769 25-607 limits assumed): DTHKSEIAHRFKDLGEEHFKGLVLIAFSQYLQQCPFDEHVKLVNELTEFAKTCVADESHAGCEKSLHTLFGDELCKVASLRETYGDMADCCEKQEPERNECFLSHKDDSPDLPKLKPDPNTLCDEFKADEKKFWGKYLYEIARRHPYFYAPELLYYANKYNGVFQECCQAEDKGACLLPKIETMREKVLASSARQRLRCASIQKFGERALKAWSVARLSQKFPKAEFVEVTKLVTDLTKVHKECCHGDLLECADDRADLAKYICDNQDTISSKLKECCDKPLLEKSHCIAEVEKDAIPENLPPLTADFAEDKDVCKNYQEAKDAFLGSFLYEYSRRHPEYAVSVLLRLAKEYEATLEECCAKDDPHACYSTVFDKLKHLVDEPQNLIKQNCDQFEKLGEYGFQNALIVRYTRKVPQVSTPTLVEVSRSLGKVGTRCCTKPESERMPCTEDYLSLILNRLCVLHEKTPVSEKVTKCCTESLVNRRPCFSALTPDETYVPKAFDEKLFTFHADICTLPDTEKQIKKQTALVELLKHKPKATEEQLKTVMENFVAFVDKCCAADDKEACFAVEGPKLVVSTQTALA
T4 sequence (P04637 whole entry, the tested form may be a part): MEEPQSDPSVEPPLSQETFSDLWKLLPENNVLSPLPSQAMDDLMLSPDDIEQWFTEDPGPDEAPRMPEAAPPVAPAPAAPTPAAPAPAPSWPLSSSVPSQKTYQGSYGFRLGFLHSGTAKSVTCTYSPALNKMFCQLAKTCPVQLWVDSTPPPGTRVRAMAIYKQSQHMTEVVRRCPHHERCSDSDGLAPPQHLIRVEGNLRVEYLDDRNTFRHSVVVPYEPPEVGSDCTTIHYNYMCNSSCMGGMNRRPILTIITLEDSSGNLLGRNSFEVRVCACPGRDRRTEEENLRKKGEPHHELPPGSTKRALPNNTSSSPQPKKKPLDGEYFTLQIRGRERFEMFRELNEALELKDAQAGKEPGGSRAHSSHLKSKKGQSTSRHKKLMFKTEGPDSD
T7 sequence (P04637 95-298 limits assumed): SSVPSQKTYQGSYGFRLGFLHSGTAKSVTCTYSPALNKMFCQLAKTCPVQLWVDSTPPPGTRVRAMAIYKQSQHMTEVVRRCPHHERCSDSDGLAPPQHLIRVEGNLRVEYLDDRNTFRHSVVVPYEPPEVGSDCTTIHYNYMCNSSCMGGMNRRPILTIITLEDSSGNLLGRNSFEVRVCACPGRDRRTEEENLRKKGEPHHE
T5 sequence (P04637 44-393 limits assumed, stated change not applied): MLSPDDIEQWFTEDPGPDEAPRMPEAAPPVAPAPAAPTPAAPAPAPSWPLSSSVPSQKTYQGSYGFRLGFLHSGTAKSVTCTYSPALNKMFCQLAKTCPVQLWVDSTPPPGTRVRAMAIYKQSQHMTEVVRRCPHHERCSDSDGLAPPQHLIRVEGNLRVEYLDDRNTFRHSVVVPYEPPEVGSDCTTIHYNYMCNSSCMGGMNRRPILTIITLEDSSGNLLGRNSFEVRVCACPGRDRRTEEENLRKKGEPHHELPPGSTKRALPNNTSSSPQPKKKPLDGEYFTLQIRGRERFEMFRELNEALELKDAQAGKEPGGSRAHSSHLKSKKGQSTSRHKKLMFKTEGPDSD
hen egg white lysozyme, sequence (P00698 19-147): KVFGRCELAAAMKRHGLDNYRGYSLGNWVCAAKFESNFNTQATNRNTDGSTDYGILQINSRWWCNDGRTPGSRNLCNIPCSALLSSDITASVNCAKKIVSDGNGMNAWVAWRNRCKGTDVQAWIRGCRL
T6 sequence (P04637 283-393 limits assumed): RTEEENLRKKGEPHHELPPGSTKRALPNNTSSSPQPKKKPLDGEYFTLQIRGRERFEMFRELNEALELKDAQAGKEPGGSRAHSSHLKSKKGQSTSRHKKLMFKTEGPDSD

B1: Fab clone 163.5 (Fab, V domains shown)
VH: VQLLEQSGAEVKRPGASVTISCQASRQDFSGQYIHWVRQAPGQGFEWMGIINPSGGSANYAPKFKGRLTMSRDSSTDTVYMTLTSLTSEDTAVYYCLLQALKHWGQGTLVAVSS
VL: AAELTQSPDSLAVALGERATINCKSSQSVLYSLNNKNYLAWYQQKPGQPPKLLIHWASTRESGVPDRFSGSGSETDFTLTISSLQAEDVAVYYCQQYYTTPYTFGQGTKLEIK
For orientation: Kd means the constant that tells how readily two partners part at equilibrium. Turning to B1, the binding result was “no binding (tested: antigen coated at 5 µg/ml)” in the test with CEA, “no binding (tested: antigen coated at 1 µg/ml)” with bovine serum albumin [1], “no binding (tested: antigen coated at 5 µg/ml)” in test [2] and “no binding” in test [4]. For the same molecule, the Kd in test [3] was found to be 15 nM.

B2: Fab clone 163.24 (Fab, V domains shown)
VH: VQLLEQSGAEVKRPGASVTISCQASRQNFSGQYIHWVRQAPGQGLEWMGIINPSGGSANYAPRFKGRLSMSRDSSTDTAYLTLTSLTSEDTAVYFCLLQSLKHWGQGTLVAVSS
VL: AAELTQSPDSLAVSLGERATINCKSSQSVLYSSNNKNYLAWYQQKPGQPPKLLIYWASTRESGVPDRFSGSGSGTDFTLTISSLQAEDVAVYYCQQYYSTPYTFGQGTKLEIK
notes: Human IgG1 kappa Fab (MCO1 vector, soluble from E. coli HB2151), myc tag on the C terminus of the heavy chain
Regarding B2, in test [5], the Kd turned out to be 13.8 nM. The binding result with CEA is given as “no binding (tested: antigen coated at 5 µg/ml)”; with bovine serum albumin [1] it was “no binding (tested: antigen coated at 1 µg/ml)”; in test [2] it was “no binding (tested: antigen coated at 5 µg/ml)”; in [4], “no binding”.

B3: whole anti-p53 antibody from CHO clone C4B4 (antibody, V domains shown)
VH: VQLLEQSGAEVKRPGASVTISCQASRQDFSGQYIHWVRQAPGQGFEWMGIINPSGGSANYAPKFKGRLTMSRDSSTDTVYMTLTSLTSEDTAVYYCLLQALKHWGQGTLVAVSS
VL: AAELTQSPDSLAVALGERATINCKSSQSVLYSLNNKNYLAWYQQKPGQPPKLLIHWASTRESGVPDRFSGSGSETDFTLTISSLQAEDVAVYYCQQYYTTPYTFGQGTKLEIK
notes: also called C4B4G4
For B3, the binding result in test [6] is recorded as “no binding (tested: antigen coated at 2 µg/ml)”; in test [7], “no binding (tested: antigen coated at 2 µg/ml)”; with bovine serum albumin [8], “no binding (tested: antigen coated at 20 µg/ml)”; with hen egg white lysozyme it was “no binding (tested: antigen coated at 10 µg/ml)”.

B4: Fab clone 163.17 (Fab, V domains shown)
VH: VQLLEQSGAEVKRPGASVTISCRASRQDFSGQYIHWVRQAPGQGFEWMGIINPSGGSANYAPKFKGRLTMSRDSSTETVYMTLTSLTSEDTAVYYCLLQALKHWGQGTLVGPSS
VL: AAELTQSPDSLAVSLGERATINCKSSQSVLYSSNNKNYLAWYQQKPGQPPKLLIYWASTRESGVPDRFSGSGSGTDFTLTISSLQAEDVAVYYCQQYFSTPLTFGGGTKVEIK
notes: as for B2
As to B4, the dissociation constant Kd in [5] amounted to 15.7 nM. The binding result is given as “no binding (tested: antigen coated at 5 µg/ml)” with CEA, “no binding (tested: antigen coated at 1 µg/ml)” with bovine serum albumin [1], “no binding (tested: antigen coated at 5 µg/ml)” in test [2] and “no binding” in test [4].

B5: Fab clone 163.1 (Fab, V domains shown)
VH: VQLLEQSGAEMKRPGASVTISCQASRQTFSGQYIHWVRQAPGQGLEWMGVINPSGGSANYAPSFQGRLSMSRDASTNTVYMKLSSLTSEDTAVYYCLSQALKYWGQGTLVAVSS
VL: AAELTQSPDSLAVSLGERATINCKSNQSVLYNSNSKNYLAWYQQKPGQPPKLLIYWASTRESGVPDRFSGSGSGTDFTLTITSLQAEDVAVYYCQQYFSSPYTFGQGTKLEIK
notes: myc tag on the C terminus of the heavy chain
With B5, in test [5], the Kd was determined as 11.9 nM. The binding result in the test with CEA is “no binding (tested: antigen coated at 5 µg/ml)”; with bovine serum albumin [1] it was “no binding (tested: antigen coated at 1 µg/ml)”; in test [2], “no binding (tested: antigen coated at 5 µg/ml)”; in test [4], “no binding”; in test [9], “no binding”.

B6: Fab clone 1159.8 (Fab, V domains shown)
VH: VQLLESGGGLIQPGRSLRLSCTASGFPFGDSAMTWFRQAPGKGLEWVGFIRSKAYGAATAYAASMKGRVTISRDDAKSIAYLHMSRLKIEDTAVYFCSRVKAGGPDYWGQGTLVTVSS
VL: AAELTQSPLSLPVIPGEPASISCRSSQSLLHRNGYNYLDWYLQKPGQSPQLLIYLGSTRASGVPDRFSGSGSGTDFTLNIRRVEAEDVGVYYCMQGLQTPYTFGEGTKVEIK
notes: Soluble Fab selected by panning on the p53 central domain; detected through the myc tag (9E10)
With B6, the binding result was “no binding (tested: antigen coated at 1 µg/ml)” with bovine serum albumin [10], “binds” in [11] and “binds” in [12].

These data come from patent US20070128672A1 (ST VINCENT S HOSPITAL SYDNEY, published 2007).
